From patent US20120237528A1 (Janssen / Centocor, published 2012)
Like-named read-outs stand apart in the source and are kept apart here.

How the values were obtained:
[1] = biological target: T1, recombinant extracellular domain (ECD) of human TF, amino acid 1-219 of the mature chain, C-terminal His6-tag (human, UniProt P13726 33-251); test: Biacore
T1 construct: expressed in a mammalian system; used for ELISA and Biacore; biotinylated by NHS-ester for the Fab ELISA; also called His6-TF-ECD1-219; HumanTF1-219

[2] = biological target: T2, Cynomolgous monkey (cyno) TF-ECD with His Tag (cynomolgus monkey, UniProt P13726 33-251 (human entry)); test: Biacore
T2 construct: also called cyno antigen
T2 chain: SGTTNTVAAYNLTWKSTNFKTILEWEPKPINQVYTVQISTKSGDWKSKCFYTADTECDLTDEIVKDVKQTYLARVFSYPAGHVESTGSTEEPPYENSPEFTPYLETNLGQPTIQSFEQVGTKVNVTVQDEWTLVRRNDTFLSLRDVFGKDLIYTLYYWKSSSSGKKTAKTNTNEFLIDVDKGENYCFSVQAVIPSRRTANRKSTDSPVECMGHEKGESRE

[3] = biological target: T1, recombinant extracellular domain (ECD) …; test: Biacore; remark: listed apart in the source
[4] = biological target: T3, endogenous human tissue factor on MDA-MB-231 breast cancer cells (human, UniProt P13726 33-295); test: cell-based or functional assay
[5] = biological target: Innovin, lyophilized recombinant human tissue factor combined with phospholipids (human, UniProt P13726 33-295, limits assumed); test: cell-based or functional assay
[6] = biological target: T3, endogenous human tissue factor on …; test: cell-based or functional assay; remark: listed apart in the source
[7] = biological target: T1, recombinant extracellular domain (ECD) …; test: TF-ECD binding ELISA, chemiluminescent
[8] = biological target: T2, Cynomolgous monkey (cyno) TF-ECD with …; test: TF-ECD binding ELISA, chemiluminescent
[9] = biological target: T1, recombinant extracellular domain (ECD) …; test: direct ELISA, 50 ng/ml
[10] = biological target: T2, Cynomolgous monkey (cyno) TF-ECD with …; test: direct ELISA of supernatants, chemiluminescent
Experimental: A solution Phase direct TF binding ELISA using chemiluminescent detection was used to rank the top binders from human framework adaptation library. The 96 well black maxisorp plates were coated with 100 uL of 4 ug/ml Goat anti human IgG FC diluted in carbonate-bicarbonate buffer, pH 9.4 at 4° C. overnight and then washed thrice with wash buffer (PBS with 0.05% Tween-20 solution) and blocked with […] 1% BSA/10 mM PBS solution for 1 hour followed by a washing as before. Samples or standards were diluted to 50 ng/ml in Assay Buffer (1% BSA in PBS+05% Tween) and 100 ul was added to the assay plate at room temperature for 1 hour with shaking. The plates were washed thrice and 100 ul per well of human or cynomologus TF-ECD with His Tag was added at 100 ng/ml diluted in Assay Buffer and incubate for 2 hours at room temperature. After washing, 100 ul per well of Qiagen peroxidase conjugated penta-his at 1:2000 dilution in assay buffer was added and incubated 1 hour at room temperature with shaking. The BM ChemiLum Substrate (BM Chemilum, POD, Roche) was made freshly at 1:100 dilution into Buffer and 100 ul added to the plates after a final wash. After 10 minutes the plates are read on Perkin Elmer Envision Reader, BM ChemiLum program.
For primary screening of library variants in crude supernatants, samples or controls were normalized to 50 ng/ml in spent FreeStyle 293 HEK media (Gibco) and assayed at single concentration determinations. In the present assay, the concentration of antibody was 5 ng (0.1 ml used) and the TF ECD and the antigen was His6-TF-ECD₁₋₂₁₉ used at a final concentration of 10 ng/well.

B1: M60 (antibody, V domains shown)
VH: EVQLVQSGAEVKKPGESLRISCKGSGYTFITYWIEWVRQMPGKGLEWMGDILPGSGSTNYSPSFQGHVTISADKSISTAYLQWSSLKASDTAMYYCARSGYYGNSGFAYWGQGTLVTVSS
VL: DIVMTQSPLSLPVTPGEPASISCKSSQSLLSSGNQKNYLTWYLQKPGQSPQLLIYWASTRESGVPDRFSGSGSGTDFTLKISRVEAEDVGVYYCQNDYTYPLTFGQGTKLEIK
notes: complete MAb; FR4 is its own entry; also called H22/L4
B1 showed a Kd [1] of 0.47 nM, a Kd [2] of 1.31 nM and a Kd [3] of 0.47 nM. For the same binder, the “IL-8 Induction, Ave % inhibition” value [4] was 106%, the “T½ Max (seconds), coagulation of human plasma” value (“T½ Max (seconds), coagulation” for short) [5] was 180 s and the “% IL-8 Inhibition” value [6] was 99.6%. For the same binder, the EC50 [7] was 0.00835 µg/mL and the EC50 [8] was 0.0178 µg/mL.

B2: M54 (antibody, V domains shown)
VH: EVQLVQSGAEVKKPGATVKISCKVSGYTFITYWIEWVQQAPGKGLEWMGDILPGSGSTNYNENFKGRVTITADTSTDTAYMELSSLRSEDTAVYYCATSGYYGNSGFAYWGQGTLVTVSS
VL: DIVMTQTPLSLSVTPGQPASISCKSSQSLLSSGNQKNYLTWYLQKPGQPPQLLIYWASTRESGVPDRFSGSGSGTDFTLKISRVEAEDVGVYYCQNDYTYPLTFGQGTKLEIK
notes: complete MAb; FR4 is its own entry; also called H21/L5
B2: binds [9]; no binding (tested: 50 ng/ml) [10].

B3: M10 (antibody, V domains shown)
VH: EVQLVQSGAEVKKPGESLRISCKGSGYTFITYWIEWVRQMPGKGLEWMGDILPGSGSTNYNENFKGHVTISADKSISTAYLQWSSLKASDTAMYYCARSGYYGNSGFAYWGQGTLVTVSS
VL: DIVMTQTPLSLPVTPGEPASISCKSSQSLLSSGNQKNYLTWYLQKPGQSPQLLIYWASTRESGVPDRFSGSGSGTDFTLKISRVEAEDVGVYYCQNDYTYPLTFGQGTKLEIK
notes: complete MAb; FR4 is its own entry; also called H15/L3
B3 was tested, and the Kd [2] was 1.57 nM, the “T½ Max (seconds), coagulation” value [5] was 196 s and the “% IL-8 Inhibition” value [6] was 90.7%. The EC50 [7] was 0.0105 µg/mL and the EC50 [8] was 0.0196 µg/mL.

B4: M31 (antibody, V domains shown)
VH: EVQLVESGGGLVQPGGSLRLSCAASGYTFITYWIEWVRQAPGKGLVWVSDILPGSGSTNYNENFKGRFTISRDNAKNTLYLQMNSLRAEDTAVYYCARSGYYGNSGFAYWGQGTLVTVSS
VL: DIVMTQTPLSLPVTPGEPASISCKSSQSLLSSGNQKNYLTWYLQKPGQSPQLLIYWASTRESGVPDRFSGSGSGTDFTLKISRVEAEDVGVYYCQNDYTYPLTFGQGTKLEIK
notes: complete MAb; FR4 is its own entry; also called H18/L3
B4: binds [9]; no binding (tested: 50 ng/ml) [10].

B5: M35 (antibody, V domains shown)
VH: EVQLVESGGGLVQPGGSLRLSCAASGYTFITYWIEWVRQAPGKGLVWVSDILPGSGSTNYNENFKGRFTISRDNAKNTLYLQMNSLRAEDTAVYYCARSGYYGNSGFAYWGQGTLVTVSS
VL: DIVMTQTPLSSPVTLGQPASISCKSSQSLLSSGNQKNYLTWLQQRPGQPPRLLIYWASTRESGVPDRFSGSGAGTDFTLKISRVEAEDVGVYYCQNDYTYPLTFGQGTKLEIK
notes: complete MAb; FR4 is its own entry; also called H18/L7
B5: binds [9]; no binding (tested: 50 ng/ml) [10].

B6: M53 (antibody, V domains shown)
VH: EVQLVQSGAEVKKPGATVKISCKVSGYTFITYWIEWVQQAPGKGLEWMGDILPGSGSTNYNENFKGRVTITADTSTDTAYMELSSLRSEDTAVYYCATSGYYGNSGFAYWGQGTLVTVSS
VL: DIVMTQSPLSLPVTPGEPASISCKSSQSLLSSGNQKNYLTWYLQKPGQSPQLLIYWASTRESGVPDRFSGSGSGTDFTLKISRVEAEDVGVYYCQNDYTYPLTFGQGTKLEIK
notes: complete MAb; FR4 is its own entry; also called H21/L4
B6: no binding (tested: 50 ng/ml) [10].

B7: M52 (antibody, V domains shown)
VH: EVQLVQSGAEVKKPGATVKISCKVSGYTFITYWIEWVQQAPGKGLEWMGDILPGSGSTNYNENFKGRVTITADTSTDTAYMELSSLRSEDTAVYYCATSGYYGNSGFAYWGQGTLVTVSS
VL: DIVMTQTPLSLPVTPGEPASISCKSSQSLLSSGNQKNYLTWYLQKPGQSPQLLIYWASTRESGVPDRFSGSGSGTDFTLKISRVEAEDVGVYYCQNDYTYPLTFGQGTKLEIK
notes: complete MAb; FR4 is its own entry; also called H21/L3
Work on B7 yielded a Kd [3] of 3.57 nM, a koff [3] of 0.000264 s⁻¹ and a kon [3] of 74000 M⁻¹ s⁻¹. For the same binder, the “T½ Max (seconds), coagulation” value [5] was 201 s, the “% IL-8 Inhibition” value [6] was 67.7% and the binding result [10] was “no binding (tested: 50 ng/ml)”.

B8: M33 (antibody, V domains shown)
VH: EVQLVESGGGLVQPGGSLRLSCAASGYTFITYWIEWVRQAPGKGLVWVSDILPGSGSTNYNENFKGRFTISRDNAKNTLYLQMNSLRAEDTAVYYCARSGYYGNSGFAYWGQGTLVTVSS
VL: DIVMTQTPLSLSVTPGQPASISCKSSQSLLSSGNQKNYLTWYLQKPGQPPQLLIYWASTRESGVPDRFSGSGSGTDFTLKISRVEAEDVGVYYCQNDYTYPLTFGQGTKLEIK
notes: complete MAb; FR4 is its own entry; also called H18/L5
B8: binds [9]; no binding (tested: 50 ng/ml) [10].

B9: M32 (antibody, V domains shown)
VH: EVQLVESGGGLVQPGGSLRLSCAASGYTFITYWIEWVRQAPGKGLVWVSDILPGSGSTNYNENFKGRFTISRDNAKNTLYLQMNSLRAEDTAVYYCARSGYYGNSGFAYWGQGTLVTVSS
VL: DIVMTQSPLSLPVTPGEPASISCKSSQSLLSSGNQKNYLTWYLQKPGQSPQLLIYWASTRESGVPDRFSGSGSGTDFTLKISRVEAEDVGVYYCQNDYTYPLTFGQGTKLEIK
notes: complete MAb; FR4 is its own entry; also called H18/L4
B9: binds [9]; no binding (tested: 50 ng/ml) [10].

B10: M56 (antibody, V domains shown)
VH: EVQLVQSGAEVKKPGATVKISCKVSGYTFITYWIEWVQQAPGKGLEWMGDILPGSGSTNYNENFKGRVTITADTSTDTAYMELSSLRSEDTAVYYCATSGYYGNSGFAYWGQGTLVTVSS
VL: DIVMTQTPLSSPVTLGQPASISCKSSQSLLSSGNQKNYLTWLQQRPGQPPRLLIYWASTRESGVPDRFSGSGAGTDFTLKISRVEAEDVGVYYCQNDYTYPLTFGQGTKLEIK
notes: complete MAb; FR4 is its own entry; also called H21/L7
B10: binds [9]; no binding (tested: 50 ng/ml) [10].

B11: M51 (antibody, V domains shown)
VH: EVQLVQSGAEVKKPGATVKISCKVSGYTFITYWIEWVQQAPGKGLEWMGDILPGSGSTNYNENFKGRVTITADTSTDTAYMELSSLRSEDTAVYYCATSGYYGNSGFAYWGQGTLVTVSS
VL: DIVMTQSPDSLAVSLGERATINCKSSQSLLSSGNQKNYLTWYQQKPGQPPKLLIYWASTRESGVPDRFSGSGSGTDFTLTISSLQAEDVAVYYCQNDYTYPLTFGQGTKLEIK
notes: complete MAb; FR4 is its own entry; also called H21/L2
B11 was tested, and the Kd [3] was 2.9 nM, the koff [3] was 0.000235 s⁻¹ and the kon [3] was 81100 M⁻¹ s⁻¹. The “T½ Max (seconds), coagulation” value [5] was 207 s, the “% IL-8 Inhibition” value [6] was 71.5% and the binding result [10] was “no binding (tested: 50 ng/ml)”.

B12: M30 (antibody, V domains shown)
VH: EVQLVESGGGLVQPGGSLRLSCAASGYTFITYWIEWVRQAPGKGLVWVSDILPGSGSTNYNENFKGRFTISRDNAKNTLYLQMNSLRAEDTAVYYCARSGYYGNSGFAYWGQGTLVTVSS
VL: DIVMTQSPDSLAVSLGERATINCKSSQSLLSSGNQKNYLTWYQQKPGQPPKLLIYWASTRESGVPDRFSGSGSGTDFTLTISSLQAEDVAVYYCQNDYTYPLTFGQGTKLEIK
notes: complete MAb; FR4 is its own entry; also called H18/L2
B12: binds [9]; no binding (tested: 50 ng/ml) [10].
